{"source": "patent US20220349876A1", "about": "“USE OF DKK1 INHIBITOR IN PREVENTION AND/OR TREATMENT OF TUMOR CACHEXIA AND DISEASES ASSOCIATED WITH DIABETES” (SHANGHAI DONGTSU BIOSCIENCES CO., LTD., priority 2019, published 2022)", "key": {"[1]": {"system": "HUVEC cells", "experiment": "γH2AX DNA damage response in HUVEC cells (Western blot)", "type": "cell-based", "description": "(2) The transfection system of a 3.5 cm petri dish was prepared as follows: 1 μl of siRNA Oligo/Red (concentration of the original solution was 20 μM) was added to an EP tube containing 250 μl of pure Opti-MEM and mixed, and 1.5 μl of RNAiMAX (transfection Reagent) was added to the flow tube containing 250 μl of pure Opti-MEM and mixed, and then all the liquid in the EP tube was added to the flow tube and mixed, and allowed to stand at room temperature for 15 min.\n(3) The prepared transfection system was added to a 3.5 cm culture dish, and the cells were cultured for 24-48 h, then the samples were collected and the total cell protein was extracted, and the knockdown effect of the gene was identified by Western Blotting.\n(3) Add 150 μl of total protein lysate to each cell sample to make the lysate fully contact with the cells, scrape off the cell lysate with a scraper, collect it into a pre-cooled EP tube, and take an ice bath for 15 min.\n(§1) Protein electrophoresis gels are double-layered gels, including an upper stacking gel and a lower separating gel. The concentration of the stacking gel is 5%, and the concentration of the separating gel is determined according to the molecular weight of the target protein. In this study, large molecular weight proteins (LRP5/6, β-catenin, β-arrestin1/2) used 8%-5% double-layer gel, and small molecular weight proteins (γH2AX, p53, p21, Bcl-2, Bax, Cleaved Caspase-3) used 12%-5% double-layer gel. In addition, the number of wells (10 wells or 15 wells) and thickness (1 mm or 1.5 mm) of the preparation gel were selected according to the number and volume of protein samples loaded. The gel formulation is shown in the experimental material section, and the preparation steps are as follows: […]"}, "[2]": {"system": "β-arrestin1/2", "experiment": "β-arrestin1/2 translocation in HUVEC cells (Western blot)", "type": "cell-based", "details": "BIM-46187 pretreatment 1 μM for 30 min", "description": "(5) Add 100 μl (cell) or 200 μl (tissue) A solution to each sample, and resuspend the cell pellet with a pipette to completely disperse the pellet. The tissue pellet should be fully homogenized on ice with a homogenizer, and the ice bath should be used for 15 min.\n(10) Add 50 μl (cells) or 100 μl (tissue) B solution to each sample, resuspend the pellet in Vortex at the highest speed for 10 s, ice bath for 10 min, and repeat twice to fully extract membrane proteins.\nas §1"}, "[3]": {"system": "wild-type mice heart", "experiment": "Local injection of Dkk1 protein into the heart combined with MDC or BIM-46187", "type": "in vivo, mouse", "description": "In the experiment of local injection of Dkk1 purified protein into the heart combined with MDC intervention, 10-week-old wild-type male mice were selected, the left chest was depilated, and intraperitoneal injection of MDC (diluted in sterile PBS, 10 mg/kg) or the corresponding volume of DMSO (diluted in sterile PBS) and injected at the same time every day thereafter. After 1 h of MDC intervention, cardiac Dkk1 protein injection was performed. The mice were given continuous inhalation anesthesia with 1% isoflurane and oxygenated with a ventilator, and then the fourth intercostal space near the sternum was opened to expose the heart. Using a 200 μl microsyringe, Dkk1 (10 μg of Dkk1 per heart, dissolved in 30 μl PBS) or an equal volume of PBS was injected locally at three sites in the heart. Of these, two sites are on the border around the left ventricle, and one site enters the myocardium of the left ventricle. After the injection, the wound was sutured, the anesthesia was removed, and the mice were awake. After MDC was continuously intervened for 2 days, the mice were anesthetized and the materials were collected.\nIn addition to injecting Dkk1 protein alone into the heart, we also need to perform experiments of local injection of Dkk1 combined with BIM-46187 into mouse hearts. According to the experimental grouping, it was divided into cardiac injections of four different solutions, including PBS, Dkk1, BIM-46187, and a mixture of Dkk1 and BIM-46187. The dosage of Dkk1 per heart is 10 μg, and the dosage of BIM-46187 is 2.4 ng, diluted with 30 μl PBS and then injected into the heart. The specific operation steps are the same as above. After the injection, the wound was sutured, the anesthesia was removed, and the mice were awake. Two days after the injection, the mice were anesthetized and the materials were collected."}, "[4]": {"system": "CT26 tumor-bearing mice", "experiment": "Tumor cachexia in CT26 tumor-bearing mice: tumor-free body weight, muscle weight, muscle membrane proteins", "type": "in vivo, mouse"}, "[5]": {"system": "LRP6 and Kremen2", "experiment": "Intramuscular injection of Dkk1, Western blot of membrane LRP6 and Kremen2", "type": "in vivo, mouse", "details": "simultaneous injection with Dkk1", "description": "Wild-type mice and β-arrestin2+/−KO mice were injected into the left quadriceps (0.25 mg/kg) and an equal volume of PBS was injected into the right leg as controls. MDC (10 mg/kg), IGFBP-4/H95P (1.7 mg/kg) or PBS were injected in combination with Dkk1 as a control to observe the effects of drugs on Dkk1-induced signal transduction. After 48 hours, the mice were sacrificed, and the left and right quadriceps were taken to measure the […].\nMembrane proteins were extracted according to the instructions of Membrane Protein Extraction Kit (Sangon Biotech, China). Western blot analysis omitted. Antibodies for WB analysis were purchased from Cell Signaling Technology and Proteintech."}}, "note": "“Also recorded” adds a separate entry of the source."}
{"molecule": "N[C@@H](CSSC[C@H](N)C(=O)N1CCn2cc(-c3ccccc3)nc2[C@@H]1CC1CCCCC1)C(=O)N1CCn2cc(-c3ccccc3)nc2[C@@H]1CC1CCCCC1", "note": "[BIM-46187]", "values": [{"measurement": "Dkk1-induced γH2AX activation", "setting": "[1]; BIM-46187 pretreatment 1 μM, 30 min", "value": "inhibited"}, {"measurement": "Dkk1-induced translocation of β-arrestin1/2", "setting": "[2]", "value": "able to prevent Dkk1-induced translocation of β-arrestin1/2"}, {"measurement": "Dkk1-induced cardiac β-arrestin1/2 translocation", "setting": "[3]; Dkk1 intracardiac injection with MDC or BIM-46187", "value": "inhibited; also recorded: significantly prevent Dkk1 direct endocytosis of LRP5/6-induced cardiac β-arrestin1/2 translocation changes"}, {"measurement": "Dkk1-induced cardiac changes (LRP5/6, γH2AX, p53, p21)", "setting": "[3]; Dkk1 intracardiac injection with MDC pretreatment or combined with BIM-46187", "value": "effectively inhibit Dkk1-induced cardiac injury; also recorded: significantly prevent"}]}
{"molecule": "IGFBP4/H95P: recombinant mutant IGFBP4/H95P protein, which lost its IGF-binding ability, can bind to LRP6 on the membrane and prevent Dkk1 signaling (protein, UniProt P22692 22-258, looked up, variant H95P) Insulin-like growth …: DEAIHCPPCSEEKLARCRPPVGCEELVREPGCGCCATCALGLGMPCGVYTPRCGSGLRCYPPRGVEKPLHTLMPGQGVCMELAEIEAIQESLQPSDKDEGDHPNNSFSPCSAHDRRCLQKHFAKIRDRSTSGGKMKVNGAPREDARPVPQGSCQSELHRALERLAASQSRTHEDLYIIPIPNCDRNGNFHPKQCHPALDGQRGKCWCVDRKTGVKLPGGLEPKGELDCHQLADSFRE", "values": [{"measurement": "loss of body weight and muscle weight", "setting": "[4]; listed as IGFBP4", "value": "reverse tumor-induced loss of tumor-free body weight and muscle atrophy"}, {"measurement": "loss of body weight and muscle weight", "setting": "[4]; listed as IGFBP-4/H95P", "value": "completely prevents the decrease in body weight and muscle weight"}, {"measurement": "Dkk1-induced endocytosis / downregulation of membrane LRP6 and Kremen2", "setting": "[5]", "value": "inhibit downregulation of membrane LRP6 expression induced by Dkk1"}]}
{"molecule": "LRP6N: soluble protein of the extracellular segment of LRP6 (LRP6 ectodomain) (protein, UniProt O75581 20-1370, looked up, extracellular domain) extracellular domain: APLLLYANRRDLRLVDATNGKENATIVVGGLEDAAAVDFVFSHGLIYWSDVSEEAIKRTEFNKTESVQNVVVSGLLSPDGLACDWLGEKLYWTDSETNRIEVSNLDGSLRKVLFWQELDQPRAIALDPSSGFMYWTDWGEVPKIERAGMDGSSRFIIINSEIYWPNGLTLDYEEQKLYWADAKLNFIHKSNLDGTNRQAVVKGSLPHPFALTLFEDILYWTDWSTHSILACNKYTGEGLREIHSDIFSPMDIHAFSQQRQPNATNPCGIDNGGCSHLCLMSPVKPFYQCACPTGVKLLENGKTCKDGATELLLLARRTDLRRISLDTPDFTDIVLQLEDIRHAIAIDYDPVEGYIYWTDDEVRAIRRSFIDGSGSQFVVTAQIAHPDGIAVDWVARNLYWTDTGTDRIEVTRLNGTMRKILISEDLEEPRAIVLDPMVGYMYWTDWGEIPKIERAALDGSDRVVLVNTSLGWPNGLALDYDEGKIYWGDAKTDKIEVMNTDGTGRRVLVEDKIPHIFGFTLLGDYVYWTDWQRRSIERVHKRSAEREVIIDQLPDLMGLKATNVHRVIGSNPCAEENGGCSHLCLYRPQGLRCACPIGFELISDMKTCIVPEAFLLFSRRADIRRISLETNNNNVAIPLTGVKEASALDFDVTDNRIYWTDISLKTISRAFMNGSALEHVVEFGLDYPEGMAVDWLGKNLYWADTGTNRIEVSKLDGQHRQVLVWKDLDSPRALALDPAEGFMYWTEWGGKPKIDRAAMDGSERTTLVPNVGRANGLTIDYAKRRLYWTDLDTNLIESSNMLGLNREVIADDLPHPFGLTQYQDYIYWTDWSRRSIERANKTSGQNRTIIQGHLDYVMDILVFHSSRQSGWNECASSNGHCSHLCLAVPVGGFVCGCPAHYSLNADNRTCSAPTTFLLFSQKSAINRMVIDEQQSPDIILPIHSLRNVRAIDYDPLDKQLYWIDSRQNMIRKAQEDGSQGFTVVVSSVPSQNLEIQPYDLSIDIYSRYIYWTCEATNVINVTRLDGRSVGVVLKGEQDRPRAVVVNPEKGYMYFTNLQERSPKIERAALDGTEREVLFFSGLSKPIALALDSRLGKLFWADSDLRRIESSDLSGANRIVLEDSNILQPVGLTVFENWLYWIDKQQQMIEKIDMTGREGRTKVQARIAQLSDIHAVKELNLQEYRQHPCAQDNGGCSHICLVKGDGTTRCSCPMHLVLLQDELSCGEPPTCSPQQFTCFTGEIDCIPVAWRCDGFTECEDHSDELNCPVCSESQFQCASGQCIDGALRCNGDANCQDKSDEKNCEVLCLIDQFRCANGQCIGKHKKCDHNVDCSDKSDELDCYPTEEPAPQA", "values": [{"measurement": "γH2AX signaling enhanced by H2O2 in the presence of Dkk1", "setting": "[1]; Dkk1 then H2O2 50 μM", "value": "significantly attenuated"}, {"measurement": "H2O2-activated γH2AX signaling in control and β-catenin-knockdown cells", "setting": "[1]; H2O2 50 μM", "value": "no effect"}, {"measurement": "γH2AX signaling in MESD knockdown cells enhanced by H2O2", "setting": "[1]; H2O2 50 μM, LRP6N pretreatment", "value": "significantly attenuats this change"}, {"measurement": "γH2AX signaling of LRP5/6 knockdown cells further activated by H2O2", "setting": "[1]; H2O2 50 μM, LRP6N pretreatment", "value": "significantly attenuated"}, {"measurement": "H2O2-induced γH2AX activation", "setting": "[1]; H2O2 50 μM, without Dkk1", "value": "does not prevent H2O2-induced γH2AX activation"}, {"measurement": "γH2AX upregulation induced by knockdown of LRP5/6", "setting": "[1]; LRP6N pre-added to culture medium", "value": "reverses cellular DNA damage induced by knockdown of LRP5/6; also recorded: significantly attenuated"}, {"measurement": "γH2AX response by the substance itself", "setting": "[1]; no Dkk1, no H2O2", "value": "does not elicit γH2AX responses"}, {"measurement": "Dkk1-induced γH2AX activation", "setting": "[1]; pretreatment with MDC or LRP6N protein", "value": "inhibits Dkk1-induced γH2AX activation"}]}
